# Experimental data from patent publication US8221773B2, “Hydrogels and uses thereof” (University of Delaware, priority 2004, dated 2012).
# Where no end group is shown, it is not given here.
# How the values were obtained:
# [1] = Temperature dependent CD: temperature at which folding and self-assembly is triggered (Tgel); format: physicochemical; settings: pH 9 and low (20 mM) salt
# From the text: At low temperature MAX1 is unfolded (and unassembled). At high temperature MAX1 folds into beta-sheet (and consequently self-assembles into a hydrogel). […] The relative hydrophobicity is MAX1>MAX2>MAX3 due to the isostructural but less hydrophobic substitutions of threonine for valine at the underlined positions. The most hydrophobic folds at the lowest temperature while the least hydrophobic folds at the highest temperature. This is a direct manifestations of the molecular parameter manipulations described in FIG. 2. Also shown are the calculated free energy of transfer of each corresponding unfolded peptide having an overall +8 charge state from octanol into water at 25° C. MAX1, the most hydrophobic has the highest free energy of transfer equal to 7.60 kcal/mol. MAX2 has a calculated transfer free energy of 6.88 kcal/mol, while the least hydrophobic MAX3 has the lowest energy of transfer of 6.45 kcal/mol.
# This allows the characteristics of the hydrogels of the invention to be varied by adjusting these parameters. […] It is well known that water is better able to solvate hydrophobic groups at low temperatures. This phenomenon has been used to describe the cold denaturation of proteins where some proteins unfold at low temperatures, exposing their hydrophobic interiors to aqueous solvent. A 150 μM aqueous solution of MAX1 unfolds when cooled below room temperature. The CD spectrum at 5° C. is consistent with random coil conformation, FIG. 9A. However, warming the solution to 40° C. results in a spectra consistent with β-sheet structure. […] In fact, previous studies involving the pH induced folding and self-assembly of MAX1 were performed at 20° C. At this temperature, folding and self-assembly are slow enough to be conveniently monitored. At higher temperatures, folding and self: assembly leading to hydrogelation is fast (instantaneous to seconds depending on concentration). If the formation of hydrophobic interactions affects the folding and self-assembly process, then altering the hydrophobic content of MAX1 should affect the temperature at which folding is triggered. […] MAX2 is identical to MAX1 except that one valine residue has been replaced with the isostructural, but less hydrophobic residue, threonine. In MAX3, two valines are replaced with threonine residues. The resulting peptides vary in their hydrophobicity as evident by comparing calculated free energies of transfer from octanol into water, FIG. 9. […] Thus, the formation of hydrophobic contacts influences folding and self-assembly. […] Thus, the characteristics of the hydrogels of the invention can be varied by adjusting the amino acid residues of the peptides used to form the hydrogels to increase or decrease the hydrophobicity of the amino acid residues used.
# There are reports of large polymers that are thermally responsive. The present invention provides the first system that employs temperature triggered folding to induce self-assembly. […] Heating the solution to 80° C. results in a spectra consistent with β-sheet structure. […] The temperatures used in both CD and rheology bracket the temperature (Tgel=60° C., FIG. 9) at which folding and consequent self-assembly is triggered. […] For example, free flowing peptide solutions could be prepared at room temperature and administered in vivo where the temperature of the body could induce gelation. […]
# [2] = Oscillatory rheology of peptide hydrogels (storage and loss moduli); format: physicochemical
# From the text: (gel storage modulus of ˜600 Pa). Gel formation continued to mature after two hours with a doubling of the gel modulus to ~1200 Pa. An equilibrium storage modulus of ~1600 Pa was reached after several hours of gel formation. This equilibrium behavior is clearly shown by the linear, frequency independent moduli measurements in FIG. 6B. For comparison, the storage modulus of strawberry gelatin is ˜50 Pa (data not shown).
# In FIG. 6D, a time sweep experiment identical to that performed during the original gel formation was run immediately after the application of 1000% strain at 6 Hz for 180 seconds. The initial modulus of the reforming gel was 650 Pa with 80% of the equilibrium modulus recovered after only 30 minutes making this a quick recovering and relatively strong hydrogel. For comparison, a 2 wt % gelatin hydrogel takes over 4 h to recover 80% of its equilibrium modulus after shear thinning.
# Rheology: Dynamic time and frequency sweep experiments were performed in a strain controlled Rheometrics ARES rheometer with 25.0 mm diameter parallel plate geometry and 0.5 mm gap distance. Lyophilized peptide was dissolved in de-ionized water and buffer or cell growth media solution at 10° C. in order to suppress folding and gelation before the sample is loaded into the rheometer. After the sample was loaded, temperature was increased to either 20° C. or 37° C. Standard low viscosity mineral oil was used to insulate the sides of the plate in order to suppress evaporation. […] Strain sweep experiments were performed to determine the linear viscoelastic regime in which all rheological experiments were performed. Dynamic time sweep experiments were performed with a frequency and strain of 6 rad/s and 1%, respectively. Frequency sweep experiments were performed with a frequency and strain of 0.1-100 rad/s and 5%, respectively.
# [3] = 2 wt %, pH 7.4, 20 mM NaCl, 20° C
# [4] = 2 wt %, pH 9, 1000% strain at 6 Hz for 180 s (FIG. 6D legend)
# [5] = 2 wt %, serum free DMEM cell growth media, 37° C
sequence,measurement,setting,value
VKVKVKVK V^DPPT KVKVKVKV-NH2 (not fully specified (C-terminus)) [MAX1],transition temperature from random coil to folded β-sheet structure,[1],around 25 °C
same,"rate of self-assembly leading to a rheological response, compared to MAX4","[2]; 1 wt % preparations, 40° C, pH 9.0, 125 mM Borate, 10 mM NaCl",faster
same,G′ values (frequency sweep),"[2]; 2 wt %, cell growth media, 37° C",~2500 Pa
same,"G′ recovered instantaneously after cessation of shear, of initial value","[2]; 2 wt %, cell growth media, 37° C, after 1000% strain at 6 rad/s",~50%
same,hydrogel rigidity (storage modulus),"[2]; 2 wt %, pH 7, NaCl final concentration 150 mM, data not shown",3000 Pa
same,G′ during lag time,[2]; [3],2-3 Pa
same,lag time before G′ increases,[2]; [3],3000 s
same,storage modulus (G′),"[2]; 2 wt %, pH 7.4, 20 mM NaCl, 20° C, after 2.5 hr gelation",~100 Pa
same,lag time before G′ increases,"[2]; 2 wt %, pH 7.4, 150 mM NaCl, 20° C",~1000 s
same,time of gelation to a material of useful rigidity,"[2]; 2 wt %, pH 7.4, 150 mM NaCl, 37° C",about 10 minutes
same,G′ value (frequency sweep),"[2]; 2 wt %, pH 7.4, 150 mM NaCl, 37° C, after 2.5 hours gelation",around 2000 Pa
same,lag time before G′ increases,"[2]; 2 wt %, pH 7.4, 400 mM NaCl, 20° C",does not exist
same,equilibrium storage modulus (G′),"[2]; 2 wt %, pH 7.4, 400 mM NaCl, 20° C, after 2.5 hr gelation",~3000 Pa
same,former rigidity regained immediately after large strain,[2]; [4],~75%
same,time to regain prestrain rigidity,[2]; [4],10 to 20 min
same,equilibrium modulus recovered after 30 minutes,"[2]; 2 wt %, pH 9, after 1000% strain at 6 Hz for 180 seconds",80%
same,initial modulus of the reforming gel,"[2]; 2 wt %, pH 9, immediately after 1000% strain at 6 Hz for 180 seconds",650 Pa
same,storage moduli (rigidity) of gels prepared by protocol 1,"[2]; 2 wt %, pH 9 borate buffer trigger, then bathed in DMEM with 10% calf serum",about 1600 Pa
same,G′ at the end of 2 hours of gelation,[2]; [5],2300 Pa
same,G″ at the end of 2 hours of gelation,[2]; [5],50 Pa
same,G′ values,"[2]; pH 7.4 without added NaCl, after 3 hours, no gelation",approximately 1 Pa
same,crossover concentration separating liquid-like (G″>G′) and gel-like (G′>G″) response,[2]; pH 9,about 1 wt %
